For assay [1], the target named is T1, recombinant human ROR1 (hROR1), construct not stated (human, UniProt Q01973 30-403, limits assumed). Description: SPR, hROR1 on chip. In general terms: In SPR one partner is held on a chip, and binding of the other changes the refractive index at the surface.
Assay [2] has as its target T1, recombinant human ROR1 (hROR1), …. Description: SPR, hROR1 on chip with competitor P3A1 dimer pre-captured.
Description: (§1) Competition of binding studies were completed using SPR. […] FC2 was used as the reference channel. […] Binding kinetics were determined using QDat software.
Assay [3] shares this target. In words: SPR, hROR1 on chip with competitor B1 pre-captured.
Description: as §1
For assay [4] the target is unchanged. Description: SPR, hROR1 on chip. This is another data set of the same source.
Description: as §1
The target in assay [5] is T2, human ROR1-hFc fusion protein (extracellular domain) (human).
T2 construct: Whole entry 'human ROR1-Fc (CHO)'; also called hROR1; huROR1-Fc
T2 sequence (chain, as listed by the source limits assumed): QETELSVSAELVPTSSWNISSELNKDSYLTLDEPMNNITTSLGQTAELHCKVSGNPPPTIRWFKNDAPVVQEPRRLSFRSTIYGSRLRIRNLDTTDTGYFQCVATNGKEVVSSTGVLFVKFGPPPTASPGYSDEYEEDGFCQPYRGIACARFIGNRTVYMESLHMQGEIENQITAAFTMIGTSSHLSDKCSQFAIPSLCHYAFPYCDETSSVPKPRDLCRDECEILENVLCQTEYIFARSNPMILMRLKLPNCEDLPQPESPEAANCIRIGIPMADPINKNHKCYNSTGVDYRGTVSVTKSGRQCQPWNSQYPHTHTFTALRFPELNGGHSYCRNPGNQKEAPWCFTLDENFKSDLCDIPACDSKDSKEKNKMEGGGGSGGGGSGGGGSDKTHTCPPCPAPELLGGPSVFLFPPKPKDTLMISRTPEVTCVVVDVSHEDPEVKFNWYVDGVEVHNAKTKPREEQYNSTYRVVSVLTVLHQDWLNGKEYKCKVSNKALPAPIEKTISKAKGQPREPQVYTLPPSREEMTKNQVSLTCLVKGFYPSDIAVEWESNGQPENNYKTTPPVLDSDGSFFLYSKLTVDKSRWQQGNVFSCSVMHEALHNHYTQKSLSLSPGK
In words: SPR, human ROR1 ECD-Fc on chip.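 Also: SPR binding kinetics of VNAR and VNAR-Fc molecules run at a range of concentrations over immobilised target, rate and affinity constants fitted with QDat software.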
Description: Binding kinetics were determined using a Pioneer Surface Plasmon Resonance (SPR) instrument (SensiQ/Pall ForteBio). […] VNARs and VNAR-Fc molecules were tested at various concentrations and the Ka (M⁻¹s⁻¹), Kd (s⁻¹) and KD (nM) values were determined using QDat software (SensiQ/Pall ForteBio).
Thermal stability assays used Applied Biosystems StepOne Real Time PCR system with the Protein Thermal Shift™ dye kit (Thermo). The assay mix was set up so that the protein was at a final concentration of 20 OA in 20 μL. 5 μL of Thermal Shift™ buffer was added alongside 2.5 uL 8× Thermal Shift™ Dye. Assays were run using the StepOne software and data analysed using Protein Thermal Shift™ software. All data are from first derivative analysis.

Assay [6] deals with T3, rat serum albumin (rat, UniProt P02770 25-608).
T3 construct: also called RSA
T3 sequence (P02770 25-608 limits assumed): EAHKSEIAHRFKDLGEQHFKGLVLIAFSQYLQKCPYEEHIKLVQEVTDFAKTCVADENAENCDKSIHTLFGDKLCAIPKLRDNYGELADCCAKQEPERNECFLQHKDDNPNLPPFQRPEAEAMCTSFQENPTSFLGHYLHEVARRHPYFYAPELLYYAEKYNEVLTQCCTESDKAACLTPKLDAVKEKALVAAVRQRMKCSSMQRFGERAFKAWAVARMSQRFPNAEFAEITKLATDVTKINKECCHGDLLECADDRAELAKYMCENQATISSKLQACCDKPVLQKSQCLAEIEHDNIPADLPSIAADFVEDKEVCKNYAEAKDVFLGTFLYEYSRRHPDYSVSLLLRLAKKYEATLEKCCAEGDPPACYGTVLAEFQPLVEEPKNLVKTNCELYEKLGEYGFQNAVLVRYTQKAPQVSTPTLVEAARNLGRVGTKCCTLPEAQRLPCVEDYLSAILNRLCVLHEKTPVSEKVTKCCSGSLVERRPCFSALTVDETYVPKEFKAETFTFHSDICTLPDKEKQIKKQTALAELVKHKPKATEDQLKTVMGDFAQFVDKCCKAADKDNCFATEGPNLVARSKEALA
In words: SPR, albumin on chip, pH 7.4.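 Also: Human, mouse, rat and cynomolgus serum albumins amine-coupled to carboxyl sensor chips, with a hen egg lysozyme surface measured in parallel as negative control.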
Description: (§2) Binding kinetics were determined using SPR. The serum albumins or negative control protein were immobilised to COOH₂ chips by amine coupling using optimised buffer conditions as follows: —Human serum albumin (HSA) and mouse serum albumin (MSA) were immobilised in sodium acetate pH5 buffer. Rat serum albumin (RSA) and cynomolgous serum albumin (CSA) in sodium acetate pH 4.5 buffer and the negative control hen egg lysozyme (HEL) protein was immobilised in sodium acetate pH 5.5 buffer.
(§3) For each analyte test experiment, binding to the chosen serum albumin protein was assayed alongside the negative control protein (HEL).

The target of assay [7] is T4, cynomolgous serum albumin (cynomolgous, UniProt A2V9Z4 25-608).
T4 construct: also called CSA; Cyano
T4 sequence (A2V9Z4 25-608 limits assumed): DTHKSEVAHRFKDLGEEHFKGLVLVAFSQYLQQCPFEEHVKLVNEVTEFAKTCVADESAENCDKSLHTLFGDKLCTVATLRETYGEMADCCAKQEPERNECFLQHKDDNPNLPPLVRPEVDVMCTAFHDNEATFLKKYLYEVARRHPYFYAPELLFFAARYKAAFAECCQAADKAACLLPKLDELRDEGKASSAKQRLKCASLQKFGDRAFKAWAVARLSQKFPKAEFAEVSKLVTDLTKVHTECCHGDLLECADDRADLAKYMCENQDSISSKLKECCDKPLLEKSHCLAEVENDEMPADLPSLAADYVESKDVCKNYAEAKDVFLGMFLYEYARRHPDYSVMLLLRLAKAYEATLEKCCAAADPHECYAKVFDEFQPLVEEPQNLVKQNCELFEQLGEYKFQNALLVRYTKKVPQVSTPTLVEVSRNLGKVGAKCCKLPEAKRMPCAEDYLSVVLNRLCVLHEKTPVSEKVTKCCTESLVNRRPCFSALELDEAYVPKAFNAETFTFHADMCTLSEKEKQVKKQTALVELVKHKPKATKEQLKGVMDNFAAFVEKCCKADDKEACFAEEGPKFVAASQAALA
Description: SPR, albumin on chip, pH 7.4.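 Also: Human, mouse, rat and cynomolgus serum albumins amine-coupled to carboxyl sensor chips, with a hen egg lysozyme surface measured in parallel as negative control.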
Description: as §2, §3

Assay [8] deals with T5, mouse serum albumin (mouse, UniProt P07724 25-608).
T5 construct: also called MSA
T5 sequence (P07724 25-608 limits assumed): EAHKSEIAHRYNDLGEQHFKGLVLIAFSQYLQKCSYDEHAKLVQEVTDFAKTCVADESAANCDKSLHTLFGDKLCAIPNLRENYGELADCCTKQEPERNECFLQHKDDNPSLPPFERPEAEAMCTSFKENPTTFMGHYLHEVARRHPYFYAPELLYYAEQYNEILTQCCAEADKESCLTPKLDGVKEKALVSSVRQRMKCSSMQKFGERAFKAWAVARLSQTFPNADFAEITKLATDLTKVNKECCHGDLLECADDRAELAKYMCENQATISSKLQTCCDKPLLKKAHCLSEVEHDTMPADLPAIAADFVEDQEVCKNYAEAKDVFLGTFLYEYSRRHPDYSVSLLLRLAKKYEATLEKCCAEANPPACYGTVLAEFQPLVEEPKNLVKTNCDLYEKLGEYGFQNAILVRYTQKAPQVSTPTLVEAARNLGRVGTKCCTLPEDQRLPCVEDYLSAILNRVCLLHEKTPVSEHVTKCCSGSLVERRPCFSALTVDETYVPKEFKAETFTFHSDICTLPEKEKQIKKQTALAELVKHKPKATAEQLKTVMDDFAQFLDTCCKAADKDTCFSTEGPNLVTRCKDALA
Description: SPR, albumin on chip, pH 7.4.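 Also: Human, mouse, rat and cynomolgus serum albumins amine-coupled to carboxyl sensor chips, with a hen egg lysozyme surface measured in parallel as negative control.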
Description: as §2, §3

In assay [9] the target is T6, human serum albumin (human, UniProt P02768 25-609).
T6 construct: also called HSA
Description: SPR, albumin on chip, pH 7.4.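 Also: Human, mouse, rat and cynomolgus serum albumins amine-coupled to carboxyl sensor chips, with a hen egg lysozyme surface measured in parallel as negative control.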
Description: as §2, §3

In assay [10] the target is T3, rat serum albumin. In words: SPR, albumin on chip, pH 5.5.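 Also: albumins amine-coupled onto carboxyl SPR chips, with each analyte also run over a hen egg lysozyme surface as negative control, Kd derived from binding kinetics.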
Description: as §2, §3
Assay [11] addresses T4, cynomolgous serum albumin. In words: SPR, albumin on chip, pH 5.5.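 Also: albumins amine-coupled onto carboxyl SPR chips, with each analyte also run over a hen egg lysozyme surface as negative control, Kd derived from binding kinetics.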
Description: as §2, §3
Assay [12] deals with T5, mouse serum albumin. In words: SPR, albumin on chip, pH 5.5.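 Also: albumins amine-coupled onto carboxyl SPR chips, with each analyte also run over a hen egg lysozyme surface as negative control, Kd derived from binding kinetics.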
Description: as §2, §3
In assay [13] the target is T6, human serum albumin. In words: SPR, albumin on chip, pH 5.5.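 Also: albumins amine-coupled onto carboxyl SPR chips, with each analyte also run over a hen egg lysozyme surface as negative control, Kd derived from binding kinetics.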
Description: as §2, §3

The Kd is the free concentration of one partner at which half of the binding sites on the other are occupied at equilibrium, for simple one-to-one binding. One may read the koff as a measure of how fast the partners let go of each other. Usually kon stands for a measure of how fast the partners come together.

T1 sequence (Q01973 30-403 limits assumed): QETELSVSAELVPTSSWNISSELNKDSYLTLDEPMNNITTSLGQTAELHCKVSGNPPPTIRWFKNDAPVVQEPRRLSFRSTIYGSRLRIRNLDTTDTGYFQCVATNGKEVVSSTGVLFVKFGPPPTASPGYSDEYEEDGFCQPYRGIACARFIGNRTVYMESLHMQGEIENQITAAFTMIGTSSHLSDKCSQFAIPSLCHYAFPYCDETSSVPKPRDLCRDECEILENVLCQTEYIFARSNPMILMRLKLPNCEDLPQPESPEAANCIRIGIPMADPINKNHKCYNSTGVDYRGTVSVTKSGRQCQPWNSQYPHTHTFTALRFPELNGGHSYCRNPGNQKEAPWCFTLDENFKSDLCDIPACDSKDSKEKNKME

B1: UC961 based mAb (antibody, human IgG1, kappa, V domains shown)
VH: QVQLQESGPGLVKPSQTLSLTCTVSGYAFTAYNIHWVRQAPGQGLEWMGSFDPYDGGSSYNQKFKDRLTISKDTSKNQVVLTMTNMDPVDTATYYCARGWYYFDYWGHGTLVTVSS
VL: DIVMTQTPLSLPVTPGEPASISCRASKSISKYLAWYQQKPGQAPRLLIYSGSTLQSGIPPRFSGSGTGTDFTLTINNIESEDAAYYFCQQHDESPYTFGEGTKVEIKR
notes: also called UC961-like; mAb based on UC-961
As for B1, in [1], the dissociation constant (Kd) is 0.078 nM, the koff turned out to be 0.000451 s⁻¹ and the kon worked out at 5.77e+06 M⁻¹ s⁻¹. For the same molecule, in assay [2], the Kd is 0.081 nM, the koff stood at 0.000444 s⁻¹ and the kon came out at 5.48e+06 M⁻¹ s⁻¹.

B2: ROR1 2A2 mAb (BioLegend) (antibody, V domains shown)
VH: QVQLQQSGAELVRPGASVTLSCKASGYTFSDYEMHWVIQTPVHGLEWIGAIDPETGGTAYNQKFKGKAILTADKSSSTAYMELRSLTSEDSAVYYCTGYYDYDSFTYWGQGTLVTVSA
VL: DIVMTQSQKIMSTTVGDRVSITCKASQNVDAAVAWYQQKPGQSPKLLIYSASNRYTGVPDRFTGSGSGTDFTLTISNMQSEDLADYFCQQYDIYPYTFGGGTKLEIK
Consider B2, for which the Kd in [1] turned out to be 0.233 nM; in [3], 0.101 nM; in assay [2] it was 0.231 nM; in assay [4], 0.21 nM. The koff in assay [1] stood at 0.000342 s⁻¹; in assay [3] it was 8.47e-05 s⁻¹; in assay [2] it was 0.000322 s⁻¹; in assay [4] it was 0.000211 s⁻¹. Further, the kon was determined as 1.47e+06 M⁻¹ s⁻¹ in assay [1], 835000 M⁻¹ s⁻¹ in [3], 1.39e+06 M⁻¹ s⁻¹ in assay [2] and 979000 M⁻¹ s⁻¹ in assay [4].

B3: P3A1 G1 dimer (VNAR)
chain: TRVDQSPSSLSASVGDRVTITCVLTDTSYGLYSTYWYRKNPGSSNKEQISISGRYSESVNKGTKSFTLTISSLQPEDSATYYCRAREARHPWLRQWYDGAGTKVEIKGGGGSGGGGSGGGGSGGGGSGGGGSTRVDQSPSSLSASVGDRVTITCVLTDTSYGLYSTYWYRKNPGSSNKEQISISGRYSESVNKGTKSFTLTISSLQPEDSATYYCRAREARHPWLRQWYDGAGTKVEIKQASGAHHHHHHGAEFEQKLISEEDL
notes: humanised VNAR dimer
Turning to B3, in assay [5], the Kd worked out at 0.43 nM, the koff was determined as 0.00147 s⁻¹ and the on-rate constant (kon) was determined as 4.3e+06 M⁻¹ s⁻¹.

B4: B1 G2 (humanised/grafted B1) with His6myc tag (VNAR)
VNAR: TRVDQSPSSLSASVGDRVTITCVLTGANYGLASTYWYRKNPGSSNQERISISGRYSESVNKRTMSFTLTISSLQPEDSATYYCRAYPWGAGAPWLVQWYDGAGTKVEIKQ
notes: VNAR
In assay [5], B4 displayed a Kd of 45.9 nM, a koff of 0.0079 s⁻¹ and a kon of 185000 M⁻¹ s⁻¹.

B5: B1 humanised V7 with His6myc tag (VNAR)
VNAR: ASVDQSPSSASASVGDRLTITCVVTGANYGLAATYWYRKNPGSSNQERISISGRYSESVNKRTMSFTLTISSLQPEDSATYYCKAYPWGAGAPWLVQWYDGAGTKLEVKQ
notes: VNAR; also called B1V7
In [5], B5 showed a Kd of 0.77 nM, a koff of 5.54e-05 s⁻¹ and a kon of 77400 M⁻¹ s⁻¹.

B6: B1 humanised V5 with His6myc tag (VNAR)
VNAR: ASVDQSPSSLSASVGDRVTITCVVTGANYGLAATYWYRKNPGSSNQERISISGRYSESVNKRTMSFTLTISSLQPEDSATYYCKAYPWGAGAPWLVQWYDGAGTKVEIKQ
notes: VNAR; also called B1V5
In assay [5], B6 registered a Kd of 0.74 nM, a koff of 3.85e-05 s⁻¹ and a kon of 52000 M⁻¹ s⁻¹.

B7: B1 G1 (humanised/grafted B1) with His6myc tag (VNAR)
VNAR: TRVDQSPSSLSASVGDRVTITCVLTGANYGLASTYWYRKNPGSSNKEQISISGRYSESVNKGTKSFTLTISSLQPEDSATYYCRAYPWGAGAPWLVQWYDGAGTKVEIKQ
notes: VNAR
For the molecule B7, in assay [5], the Kd came out at 82.8 nM, the koff amounted to 0.0162 s⁻¹ and the kon is 220000 M⁻¹ s⁻¹.

B8: D3 ADV1 dimer (VNAR)
chain: ASVNQSPSSLSASVGDRVTITCVLTDTSYGLYSTSWFRKNPGTTDWERMSIGGRYSESVNKGAKSFTLTISSLQPEDSATYYCKAQSGMAISTGSGHGYNWYDGAGTKVEIKGGGGSGGGGSGGGGSGGGGSGGGGSASVNQSPSSLSASVGDRVTITCVLTDTSYGLYSTSWFRKNPGTTDWERMSIGGRYSESVNKGAKSFTLTISSLQPEDSATYYCKAQSGMAISTGSGHGYNWYDGAGTKVEIKQASGAHHHHHHGAEFEQKLISEEDL
notes: Listing names it 'D3V1 dimer'; also called D3V1 dimer
In assay [5], B8 came in with a Kd of 8.92 nM, a koff of 0.00567 s⁻¹ and a kon of 636000 M⁻¹ s⁻¹.

B9: D3 ADV2 dimer (VNAR)
chain: TRVDQSPSSLSASVGDRVTITCVLTDTSYGLYSTSWFRKNPGTTDWERMSIGGRYSESVNKGAKSFTLTISSLQPEDSATYYCKAQSGMAISTGSGHGYNWYDGAGTKVEIKGGGGSGGGGSGGGGSGGGGSGGGGSTRVDQSPSSLSASVGDRVTITCVLTDTSYGLYSTSWFRKNPGTTDWERMSIGGRYSESVNKGAKSFTLTISSLQPEDSATYYCKAQSGMAISTGSGHGYNWYDGAGTKVEIKQASGAHHHHHHGAEFEQKLISEEDL
notes: Listing names it 'D3V2 dimer'; also called D3V2 dimer
In the case of B9, in [5], the Kd was found to be 26.2 nM, the koff is 0.016 s⁻¹ and the kon was found to be 609000 M⁻¹ s⁻¹.

B10: P3A1 V1 dimer (VNAR)
chain: TRVDQSPSSLSASVGDRVTITCVLTDTSYGLYSTSWFRKNPGTTDWERMSIGGRYVESVNKGAKSFTLTISSLQPEDFATYYCKAREARHPWLRQWYDGAGTKVEIKGGGGSGGGGSGGGGSGGGGSGGGGSTRVDQSPSSLSASVGDRVTITCVLTDTSYGLYSTSWFRKNPGTTDWERMSIGGRYVESVNKGAKSFTLTISSLQPEDFATYYCKAREARHPWLRQWYDGAGTKVEIKQASGAHHHHHHGAEFEQKLISEEDL
As for B10, in assay [5], the Kd was 0.18 nM, the koff was 0.000846 s⁻¹ and the on-rate constant (kon) was 4.78e+06 M⁻¹ s⁻¹.

B11: P3A1 G2 dimer (VNAR)
chain: TRVDQSPSSLSASVGDRVTITCVLTDTSYGLYSTYWYRKNPGTTDWERMSIGGRYSESVNKGAKSFTLTISSLQPEDSATYYCRAREARHPWLRQWYDGAGTKVEIKGGGGSGGGGSGGGGSGGGGSGGGGSTRVDQSPSSLSASVGDRVTITCVLTDTSYGLYSTYWYRKNPGTTDWERMSIGGRYSESVNKGAKSFTLTISSLQPEDSATYYCRAREARHPWLRQWYDGAGTKVEIKQASGAHHHHHHGAEFEQKLISEEDL
notes: humanised VNAR dimer
In [5], B11 yielded a Kd of 0.77 nM, a koff of 0.00119 s⁻¹ and a kon of 1.88e+06 M⁻¹ s⁻¹.

B12: D3 humanised EL V2 with His6myc tag (VNAR)
VNAR: ASVNQSPSSLSASVGDRVTITCVLTDTSYGLYSTSWFRKNPGTTDWERMSIGGRYVESVNKRAKSFTLTISSLQPEDFATYYCKAQSGMAISTGSGHGYNWYDGAGTKVEIKQ
notes: VNAR; also called D3 EL V2
For the molecule B12, in assay [5], binding was characterised by a dissociation constant (Kd) of 18.9 nM, the koff was roughly 0.0163 s⁻¹ and the kon is 1.85e+06 M⁻¹ s⁻¹.

B13: D3 humanised EL V4 with His6myc tag (VNAR)
VNAR: ASVNQSPSSLSASVGDRVTITCVLTDTSYGLYSTSWYQQKPGTTDWERMSIGGRYVESVNKRAKSFTLTISSLQPEDFATYYCKAQSGMAISTGSGHGYNWYDGAGTKVEIKQ
notes: VNAR; also called D3 EL V4
For B13, in assay [5], the Kd was found to be 58.5 nM, the koff is roughly 0.0545 s⁻¹ and the kon came to 1.38e+06 M⁻¹ s⁻¹.

B14: D3 humanised ADV2 with His6myc tag (VNAR)
VNAR: TRVDQSPSSLSASVGDRVTITCVLTDTSYGLYSTSWFRKNPGTTDWERMSIGGRYSESVNKGAKSFTLTISSLQPEDSATYYCKAQSGMAISTGSGHGYNWYDGAGTKVEIKQ
notes: VNAR; also called D3 AD V2
In assay [5], B14 showed a Kd of 51.6 nM, a koff of 0.00236 s⁻¹ and a kon of 45800 M⁻¹ s⁻¹.

B15: BA11 (humanised HSA-binding VNAR) (VNAR)
VNAR: TRVDQSPSSLSASVGDRVTITCVLTDTSYPLYSTYWYRKNPGSSNKEQISISGRYSESVNKGTKSFTLTISSLQPEDSATYYCRAMSTNIWTGDGAGTKVEIK
notes: VNAR
Turning to B15, the Kd with rat serum albumin [6] came out at 2.97 nM; in assay [7], 3.36 nM; in the assay with mouse serum albumin [8], 1.9 nM; with human serum albumin [9] it was 0.636 nM; with rat serum albumin [10] it was 4.39 nM; in assay [11] it was 1.11 nM. Besides, the values for the Kd with mouse serum albumin [12] and in the assay with human serum albumin [13] were 4.8 nM and 0.91 nM, respectively.

B16: BA11-aminoxy (VNAR)
VNAR: TRVDQSPSSLSASVGDRVTITCVLTDTSYPLYSTYWYRKNPGSSNKEQISISGRYSESVNKGTKSFTLTISSLQPEDSATYYCRAMSTNIWTGDGAGTKVEIK
modifications: C-terminal aminoxy (intein cleavage with dioxyamine)
For B16, the Kd turned out to be 10.8 nM with rat serum albumin [6]; 7.97 nM in assay [7]; 8.77 nM with mouse serum albumin [8]; 1.12 nM with human serum albumin [9]; 21.2 nM with mouse serum albumin [12].

B17: BA11 C-terminal cysteine derivative (VNAR)
VNAR: TRVDQSPSSLSASVGDRVTITCVLTDTSYPLYSTYWYRKNPGSSNKEQISISGRYSESVNKGTKSFTLTISSLQPEDSATYYCRAMSTNIWTGDGAGTKVEIK
modifications: additional C-terminal cysteine (intein cleavage with cysteine)
notes: also called BA11-cys
For B17, the Kd with rat serum albumin [6] was 3.37 nM; in assay [7] it was 2.1 nM; in the assay with human serum albumin [9], 0.756 nM; with rat serum albumin [10], 3.21 nM; with mouse serum albumin [12], 3.77 nM; with human serum albumin [13], 1.96 nM.

The values are drawn from patent US20230203155A1 (ALMAC DISCOVERY, published 2023).
